From publication PMC8541144, “Synthesis, Characterization and In Vitro Evaluation of Hybrid Monomeric Peptides Suited for Multimodal Imaging by PET/OI: Extending the Concept of Charge—Cell Binding Correlation” (Pharmaceuticals, 2021)
Read-outs that look alike come from different tables or passages of the source.

What was measured:
[1] = LogD determination: partition between 1-octanol and phosphate buffer pH 7.4
Protocol: In the following, the lipophilicity of the labeled conjugates was investigated to get a first idea of the potential excretion pathway of the agents during an in vivo application. The logD values were determined by partition experiments between n-octanol and aqueous solution at pH 7.4.
The mixtures were intensively shaken for 5 min on a vibrating plate. After subsequent centrifugation at 13,000 rpm for 5 min, 125 µL were taken from each phase and measured in a γ-counter. The logD values were calculated from three or four independent experiments, each performed in triplicate.

[2] = Photophysical properties (absorbance and emission measurements); assay type: physicochemical; conditions: PBS, 1 × 10^−5 mol × L^−1
Protocol: Following the synthesis of the target compounds, their photophysical properties were determined. Here, a possible negative influence of the conjugation of the different MIUs to the corresponding peptidic structures on the absorbance coefficients, or the absorption or emission wavelengths should be ruled out. In Table 2, the results of these evaluations are reported for the MIU-peptide-bioconjugates 7 a-c, 8 a-c and 9 a-c as well as for the MIUs 7-9. As expected, no significant loss or shift of fluorescence properties of the final compounds compared to their imaging units before conjugation was observed. This is in line with the earlier observation for PESIN homodimer-MIU-conjugates where an influence of dye or MIU bioconjugation on fluorescence quantum yields and other photophysical properties could be ruled out.
For HPLC chromatography, a Dionex UltiMate 3000 system was used together with Chromeleon Software (Version 6.80). For semipreparative analyses, a Chromolith (RP-18e, 100–10 mm, Merck, Germany) column was used. For radioanalytical use, a Dionex UltiMate 3000 system equipped with a Raytest GABI Star radioactivity detector was used together with a Chromolith Performance (RP-18e, 100–4.6 mm, Merck, Germany) column. All operations were performed with a flow rate of 4 mL/min using H2O + 0.1% TFA and MeCN + 0.1% TFA as solvents. HR-ESI (high-resolution Electrospray Ionization) and MALDI (Matrix-Assisted Laser Desorption/Ionization) spectra were obtained with Finnigan MAT95Q and Bruker Daltronics Microflex spectrometers, respectively. γ-counting was performed using a 2480 Wizard gamma counter system from Perkin Elmer (Rodgau, Germany). For absorbance and emission measurements, a Tecan Infinite M200 Microplate reader together with a Nunc Micro-Well 96 solid plate from ThermoFisher (Dreieich, Germany) was used. Confocal fluorescence microscopy was performed on a Leica TCS SP8 confocal microscope with lasers at λ = 405, 488, 552 and 638 nm. Overlays of microscopies were generated directly with the operating software or afterwards using FIJI software (V1.50e).

[3] = set-up: method as in PMID 32618007, PMID 32948032; conditions: MIUs; mean ± SD; ref [20],[21]; cited from earlier work
[4] = set-up: method as in PMID 32618007, PMID 32948032; conditions: ref [20],[21], cited from earlier work

Structure (SMILES): CSCC[C@H](NC(=O)[C@H](CC(C)C)NC(=O)[C@H](Cc1c[nH]cn1)NC(=O)CNC(=O)[C@@H](NC(=O)[C@H](C)NC(=O)[C@H](Cc1c[nH]c2ccccc12)NC(=O)[C@H](CCC(N)=O)NC(=O)CCOCCOCCOCCOCCNC(=O)CCCN1C(=O)CC(SC[C@H](NC(=O)[C@H](CCCC[n+]2c(C)cc(/C=C/c3ccc(N(C)C)cc3)cc2C)NC(=O)CC[C@H](C(=O)O)N2CCN(CC(=O)O)CCN(CC(=O)O)CC2)C(N)=O)C1=O)C(C)C)C(N)=O (stereo partly drawn) [7 a, BBN7-14-pyrylium-NODA-GA]
- logD [1]: -2.38 ± 0.02

Structure (SMILES): CCCC[C@H](NC(=O)CCOCCOCCOCCOCCNC(=O)CCCN1C(=O)CC(SC[C@H](NC(=O)[C@H](CCCC[n+]2c(C)cc(/C=C/c3ccc(N(C)C)cc3)cc2C)NC(=O)CC[C@H](C(=O)O)N2CCN(CC(=O)O)CCN(CC(=O)O)CC2)C(N)=O)C1=O)C(=O)N[C@H]1CC(=O)NCCCC[C@@H](C(N)=O)NC(=O)[C@H](Cc2c[nH]c3ccccc23)NC(=O)[C@H](CCCNC(=N)N)NC(=O)[C@@H](Cc2ccccc2)NC(=O)[C@H](Cc2c[nH]cn2)NC1=O (stereo partly drawn) [7 b, Nle-c(DHfRWK)-pyrylium-NODA-GA]
- logD [1]: -2.03 ± 0.06

Structure (SMILES): Cc1cc(/C=C/c2ccc(N(C)C)cc2)cc(C)[n+]1CCCC[C@H](NC(=O)CC[C@H](C(=O)O)N1CCN(CC(=O)O)CCN(CC(=O)O)CC1)C(=O)N[C@@H](CSC1CC(=O)N(CCCC(=O)NCCOCCOCCOCCOCCC(=O)NCCCC[C@@H]2NC(=O)[C@@H](Cc3ccccc3)NC(=O)[C@H](CC(=O)O)NC(=O)CNC(=O)[C@H](CCCNC(=N)N)NC2=O)C1=O)C(N)=O (stereo partly drawn) [7 c, c(RGDfK)-pyrylium-NODA-GA]
- logD [1]: -2.51 ± 0.09

Structure (SMILES): CSCC[C@H](NC(=O)[C@H](CC(C)C)NC(=O)[C@H](Cc1c[nH]cn1)NC(=O)CNC(=O)[C@@H](NC(=O)[C@H](C)NC(=O)[C@H](Cc1c[nH]c2ccccc12)NC(=O)[C@H](CCC(N)=O)NC(=O)CCOCCOCCOCCOCCNC(=O)CCCN1C(=O)CC(SC[C@H](NC(=O)[C@H](CCCCNS(=O)(=O)c2cccc3c(N(C)C)cccc23)NC(=O)CC[C@H](C(=O)O)N2CCN(CC(=O)O)CCN(CC(=O)O)CC2)C(N)=O)C1=O)C(C)C)C(N)=O (stereo partly drawn) [8 a, BBN7-14-dansyl-NODA-GA]
- logD [1]: -1.44 ± 0.01

Structure (SMILES): CCCC[C@H](NC(=O)CCOCCOCCOCCOCCNC(=O)CCCN1C(=O)CC(SC[C@H](NC(=O)[C@H](CCCCNS(=O)(=O)c2cccc3c(N(C)C)cccc23)NC(=O)CC[C@H](C(=O)O)N2CCN(CC(=O)O)CCN(CC(=O)O)CC2)C(N)=O)C1=O)C(=O)N[C@H]1CC(=O)NCCCC[C@@H](C(N)=O)NC(=O)[C@H](Cc2c[nH]c3ccccc23)NC(=O)[C@H](CCCNC(=N)N)NC(=O)[C@@H](Cc2ccccc2)NC(=O)[C@H](Cc2c[nH]cn2)NC1=O (stereo partly drawn) [8 b, Nle-c(DHfRWK)-dansyl-NODA-GA]
- logD [1]: -1.66 ± 0.03

Structure (SMILES): CN(C)c1cccc2c(S(=O)(=O)NCCCC[C@H](NC(=O)CC[C@H](C(=O)O)N3CCN(CC(=O)O)CCN(CC(=O)O)CC3)C(=O)N[C@@H](CSC3CC(=O)N(CCCC(=O)NCCOCCOCCOCCOCCC(=O)NCCCC[C@@H]4NC(=O)[C@@H](Cc5ccccc5)NC(=O)[C@H](CC(=O)O)NC(=O)CNC(=O)[C@H](CCCNC(=N)N)NC4=O)C3=O)C(N)=O)cccc12 (stereo partly drawn) [8 c, c(RGDfK)-dansyl-NODA-GA]
- logD [1]: -2.17 ± 0.14

Structure (SMILES): CSCC[C@H](NC(=O)[C@H](CC(C)C)NC(=O)[C@H](Cc1c[nH]cn1)NC(=O)CNC(=O)[C@@H](NC(=O)[C@H](C)NC(=O)[C@H](Cc1c[nH]c2ccccc12)NC(=O)[C@H](CCC(N)=O)NC(=O)CCOCCOCCOCCOCCNC(=O)CCCN1C(=O)CC(SC[C@H](NC(=O)[C@H](CCCCNC(=O)c2ccc(C3=C(/C=C/C4=[N+](CCCCS(=O)(=O)[O-])c5ccc6ccccc6c5C4(C)C)CCC/C3=C\C=C3\N(CCCCS(=O)(=O)O)c4ccc5ccccc5c4C3(C)C)cc2)NC(=O)CC[C@H](C(=O)O)N2CCN(CC(=O)O)CCN(CC(=O)O)CC2)C(N)=O)C1=O)C(C)C)C(N)=O (stereo partly drawn) [9 a, BBN7-14-cyanine-NODA-GA]
- logD [1]: -1.45 ± 0.06
- λmax(abs) [2]: 724/800
- Stokes Shift ([2]; λex = 650 nm): 9 nm
- λmax(em) ([2]; λex = 650 nm): 809 nm

Structure (SMILES): CCCC[C@H](NC(=O)CCOCCOCCOCCOCCNC(=O)CCCN1C(=O)CC(SC[C@H](NC(=O)[C@H](CCCCNC(=O)c2ccc(C3=C(/C=C/C4=[N+](CCCCS(=O)(=O)O)c5ccc6ccccc6c5C4(C)C)CCC/C3=C\C=C3\N(CCCCS(=O)(=O)[O-])c4ccc5ccccc5c4C3(C)C)cc2)NC(=O)CC[C@H](C(=O)O)N2CCN(CC(=O)O)CCN(CC(=O)O)CC2)C(N)=O)C1=O)C(=O)N[C@H]1CC(=O)NCCCC[C@@H](C(N)=O)NC(=O)[C@H](Cc2c[nH]c3ccccc23)NC(=O)[C@H](CCCNC(=N)N)NC(=O)[C@@H](Cc2ccccc2)NC(=O)[C@H](Cc2c[nH]cn2)NC1=O (stereo partly drawn) [9 b, Nle-c(DHfRWK)-cyanine-NODA-GA]
- logD [1]: -1.42 ± 0.13

Structure (SMILES): CC1(C)C(/C=C/C2=C(c3ccc(C(=O)NCCCC[C@H](NC(=O)CC[C@H](C(=O)O)N4CCN(CC(=O)O)CCN(CC(=O)O)CC4)C(=O)N[C@@H](CSC4CC(=O)N(CCCC(=O)NCCOCCOCCOCCOCCC(=O)NCCCC[C@@H]5NC(=O)[C@@H](Cc6ccccc6)NC(=O)[C@H](CC(=O)O)NC(=O)CNC(=O)[C@H](CCCNC(=N)N)NC5=O)C4=O)C(N)=O)cc3)C(=C/C=C3/N(CCCCS(=O)(=O)[O-])c4ccc5ccccc5c4C3(C)C)/CCC2)=[N+](CCCCS(=O)(=O)O)c2ccc3ccccc3c21 (stereo partly drawn) [9 c, c(RGDfK)-cyanine-NODA-GA]
- logD [1]: -1.97 ± 0.18

Structure (SMILES): N=C(N)NCCC[C@@H]1NC(=O)[C@H](CCCCNC(=O)CCOCCOCCOCCOCCNC(=O)CCCN2C(=O)CC(SC[C@H](NC(=O)CNC(=O)CC[C@H](C(=O)O)N3CCN(CC(=O)O)CCN(CC(=O)O)CC3)C(N)=O)C2=O)NC(=O)[C@@H](Cc2ccccc2)NC(=O)[C@H](CC(=O)O)NC(=O)CNC1=O (stereo partly drawn) [10 c, c(RGDfK)-NODA-GA]
- logD [1]: -4.06 ± 0.1

Structure (SMILES): Cc1cc(/C=C/c2ccc(N(C)C)cc2)cc(C)[n+]1CCCC[C@H](NC(=O)CC[C@H](C(=O)O)N1CCN(CC(=O)O)CCN(CC(=O)O)CC1)C(=O)N[C@@H](CS)C(N)=O [Compound 7]
- logD [3]: −2.04 ± 0.11
- Stokes Shift ([4]; MIU, λex = 400 nm): 160 nm
- log ε ([4]; MIUs): 4.16 M^−1cm^−1
- λmax(abs) ([4]; MIUs): 440 nm
- λmax(em) ([4]; MIUs, λex = 400 nm): 600 nm

Structure (SMILES): CN(C)c1cccc2c(S(=O)(=O)NCCCC[C@H](NC(=O)CC[C@H](C(=O)O)N3CCN(CC(=O)O)CCN(CC(=O)O)CC3)C(=O)N[C@@H](CS)C(N)=O)cccc12 [Compound 8, thio-dansyl-NODA-GA]
- logD [3]: −1.39 ± 0.04
- λmax(em) ([4]; MIUs, λex = 400 nm): 550 nm

Structure (SMILES): CC1(C)C(/C=C/C2=C(c3ccc(C(=O)NCCCC[C@H](NC(=O)CC[C@H](C(=O)O)N4CCN(CC(=O)O)CCN(CC(=O)O)CC4)C(=O)N[C@@H](CS)C(N)=O)cc3)C(=C/C=C3/N(CCCCS(=O)(=O)[O-])c4ccc5ccccc5c4C3(C)C)/CCC2)=[N+](CCCCS(=O)(=O)O)c2ccc3ccccc3c21 [Compound 9, thio-cyanine-NODA-GA]
- logD [3]: −1.29 ± 0.11
- Stokes Shift ([4]; MIU, λex = 650 nm): 10 nm
- λmax(em) ([4]; MIU, λex = 650 nm): 800 nm
- λmax(abs) ([4]; MIUs): 720/790

Structure (SMILES): NC(=O)[C@H](CS)NC(=O)CNC(=O)CC[C@H](C(=O)O)N1CCN(CC(=O)O)CCN(CC(=O)O)CC1 [Compound 10, thio-NODA-GA]
- logD [3]: −3.35 ± 0.15

Structure (SMILES): CSCC[C@H](NC(=O)[C@H](CC(C)C)NC(=O)[C@H](Cc1c[nH]cn1)NC(=O)CNC(=O)[C@@H](NC(=O)[C@H](C)NC(=O)[C@H](Cc1c[nH]c2ccccc12)NC(=O)[C@H](CCC(N)=O)NC(=O)CCOCCOCCOCCOCCNC(=O)CCCN1C(=O)CC(SC[C@H](NC(=O)CNC(=O)CC[C@H](C(=O)O)N2CCN(CC(=O)O)CCN(CC(=O)O)CC2)C(N)=O)C1=O)C(C)C)C(N)=O (stereo partly drawn) [[^68Ga]Ga-10 a, metal not drawn]
- logD [1]: -3.78 ± 0.04

Structure (SMILES): CCCC[C@H](NC(=O)CCOCCOCCOCCOCCNC(=O)CCCN1C(=O)CC(SC[C@H](NC(=O)CNC(=O)CC[C@H](C(=O)O)N2CCN(CC(=O)O)CCN(CC(=O)O)CC2)C(N)=O)C1=O)C(=O)N[C@H]1CC(=O)NCCCC[C@@H](C(N)=O)NC(=O)[C@H](Cc2c[nH]c3ccccc23)NC(=O)[C@H](CCCNC(=N)N)NC(=O)[C@@H](Cc2ccccc2)NC(=O)[C@H](Cc2c[nH]cn2)NC1=O (stereo partly drawn) [[^68Ga]Ga-10 b, metal not drawn]
- logD [1]: -3.36 ± 0.02
